# Source: publication PMC9241661
# Target: endogenous PTEN-induced kinase 1 (PINK1) (human (endogenous in Huh7)) (UniProt Q9BXM7)
# Experiment: proximity ligation
# Chain of UniProt Q9BXM7 (Q9BXM7 78-581): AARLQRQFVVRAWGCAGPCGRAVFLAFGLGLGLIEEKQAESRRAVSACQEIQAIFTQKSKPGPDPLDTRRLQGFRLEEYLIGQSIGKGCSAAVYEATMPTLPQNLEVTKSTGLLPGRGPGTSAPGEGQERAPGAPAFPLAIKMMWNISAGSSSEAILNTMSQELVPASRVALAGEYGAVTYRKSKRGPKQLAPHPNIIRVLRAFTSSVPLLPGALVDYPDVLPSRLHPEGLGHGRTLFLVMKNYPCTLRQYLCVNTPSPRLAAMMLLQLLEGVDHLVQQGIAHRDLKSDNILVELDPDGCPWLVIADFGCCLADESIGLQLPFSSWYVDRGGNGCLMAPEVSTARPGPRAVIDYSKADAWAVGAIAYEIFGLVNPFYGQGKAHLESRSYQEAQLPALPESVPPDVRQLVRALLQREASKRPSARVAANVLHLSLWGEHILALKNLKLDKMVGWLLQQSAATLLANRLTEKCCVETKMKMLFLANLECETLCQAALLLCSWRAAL
substance,measurement,value
JEV-NS4A made in JEV-infected Huh7 cells (from UniProt P27395 2124-2249) (natural protein),fluorescent dots per cell (PLA) (fluorescent dots per cell),20
